This data set can be described thus: soluble on expression in E. coli; label from the status in PepcDB or PDB records.
Take “MDALVSTKANSIAYQRSTVIIPAYNEEKRLMPVLYELCEYIRSNSLEWKVMVSIDGDDGTESNVKIMMQEYSFLSYSKGKGRGGKGAAIKRAITSATGEFVILMDADGSVPLKEIVKALDLTNYYDLIIFDRYSNRGNRIPFIRRFPSRGFNKLVRIFLGLKINDTQCGYKIIKREYAQRAFNKITISNAFFDVALLYYLKKERAKYIEIPVEYNYDRNSKFHVVELVLGEGISLIAFRIRNSRFYKYVPEKLISLYYRKFRWILEHHHHHH”: the “soluble on expression in E. coli” value is “soluble”.
With “MSLKLVENLALKYYDKVVDLRHQIHMHPELEFEEENTAHLVCKILDEFGIKYQKNIAKTGILAIIEGKKKSQKKPKCVLLRADMDALPVQEKTNLSYASKIDGKMHACGHDGHTAGLLGAALILNELKDEFCGTIKFMFQPAEEGSGGAKPMIESGVLENPYVDAVFGCHLWGPLLENTAQIVSGEMMAGTDIFDLEFIGRGGHGAHPHTCIDPIIMTTQFVNNIQSVISRRLAPYEAGVITVGQICAGTTYNVIPTNAYLKGTVRFLNDKTQDILKSSLEEVAAATAKSNGGDYKLKYTKEFPPLINDEKAVLIARKAFAKVLGEENIIVSSKPDMGAEDFAFLTRERMGAYVFVGISKDLNHPALHHSSTFCWDDENLKVLMQGDVMMALEFLNEGGSHHHHHH” the entry was “soluble”; with “TMNPLYSVKRAEKRRNVVLGRMLEVGKITQQQYEQAKAETVTATFYGTALEFRADYVTEMIRQEMVKRYGEDVAYNKGF”, “not soluble”; with “MSLHMSQTTQTDIITLGAVAAKIPQLIPKVPHLLNGLKQAYLRTPSTPAGLGIAFEKAVKRNPDGMALLFEDERYSYQELNEWANQIAHFYLSLGARKGDVIAVMVENRSELLATIVALAKIGVTAALVNTSQTGKVLTHSINLVQPIALIVGEEVRKCVDEIKQDLNLAQDRFHWFANQATRQDAGSAPRDYINLAEKIDHFPKFNPPTTQTVQGKDGLFYIYTSGTTGLPKAVIFTHSRWTLAYGTYGHVLALDENDVMYVTLPMYHATGIVVCWCGVIAGSATLALRRKYSTSAFWKDVQKFNASAIGYVGELCRYLMDAPPSELDRHHRVTKMIGNGMRPNIWDKFKQRFGVKEILELYASSEGNVGFSNIFNFDNTVGFSPTPYAVIAFDKEKNEPIRDQNGYCQKVKTGEVGLLVGKITRRSPFDGYTDPEKNKSVILKNVFKKGDSYFNTGDLVRDIGFRHAQFVDRLGDTFRWKGENVSTTEVENMLCEYEKIVEAVVYGVEIPNTNGRAGMAAITLNDQAEFNDEDMSAMVNTFKKCLPAYAIPVFLRVQKTVETTGTFKYQKNKLKEQAFDPSKTEERLLVLLPGESAYCEVTSEIFDNIQAYKYREGHHHHHH”, “soluble”.
With “MHSDELLVEILVEELPAQALLNEYKEMPKKLHALFNKRALEVGNIEIFYTPRRLCLLIKDFPLLTQETKEEFFGPPVKIACNHQDKTQGLNALGLGFYQKLGLKDHQYFQTAFKNNKEVLYHAKIHEKEPTKDLIMPIVLEFLEGLNFGKSMRWGNVEKSFIRPIHNICVLFNGEDFSGIEVKEYGFKTKQATKVHRQEGFDFIQVDSPKAYFEVLEKNHVILDPKKREAKILQEIKELETKHHIIVETDRDLLDEVVAITEYPSALLGEFDKAFLKLPSEIIITSMKENQRYFATFCQKSQEESPTLHNGFIVVSNAINKDKQKIILGNQKVLKARLSDAVFFYENDLKKPLDNAPLESVVFVQGLGTLKDKMERESIIAQYLTQKYISSLNMPLEKALELVKRAVQIAKADLLSEVVYEFSELQGIMGYYYALKQNENELVALSVKEQYLPASENAPLPSSVFSSIVALSLKLDSLFSLFSVGKIPSGSKDPFALRRLSFGLLKIIAHYGLEFDLKADLKNLFQKVGVYQSFDLEILEKFLLERFHNLIDCNPSIIRSVLNTNERDIVK” the entry was “not soluble”.
The same measure for “MSLGGQEKEHLTMRAEEWHLVSGAVSMRGRRPTDEDTMVVVAAIHSHRNIRIQALFDGHGGPNVAQFAANRLQSLFARQKGYSRRDLEKICHALDEELKKNNVRRGGSTGVIMVIEKVEKPEKVIVRGRQILKDPGLTPLKEHYRKQAGPAEEITLGTSETPFRLHVANVGDSRAMLVLEDEYYEMTKDHKPEDPEEKSRILRAGASVTDSEGTSVPRIDGSLALSRSFGDFSLKQGSGSTPDAVISTPDVRQFYAGYNDLLVLFCDGVTEPVASSWPQVAAYTREIFVQTGDVVKTAVALAEQAYSAGSQDNLSAVVTRLRPDPAEEGHHHHHH”: “soluble”; for “MGKALLIVNPSSGKEKGKTYQGKTEEVLKKRYDEVEVRLTEKAGDATEFASWASEQGFDAVIAMGGDGTLNETINGLAIHEKRPDFGFIPLGTVNDLARSVGIPLKPEKAIQALEKAKAIPMDIGRIGDQ”: “not soluble”.
Take “QVTVQSSPNFTQHVREQSLVTDQLSRRLIRTYQLYSRTSGKHVQVLANKRINAMAEDGDPFAKLIVETDTFGSRVRVRGAETGLYICMNKKGKLIAKSNGKGKDCVFTEIVLENNYTALQNAKYEGWYMAFTRKGRPRKGSKTRQHQREVHFMKRLPRGHHTTE”: the “soluble on expression in E. coli” value is recorded as “soluble”.
With “MGSDKIHHHHHHMKIVFITTVASSIYGFRAPVIKKLIGKNHQVYAFVSEFSDNELDIIREMGVTPVTYRSNRSGVNPFSDIKSTFLIFKALKKISPDLVFPYFAKPVIFGTFAAKLAGVPRIVGMLEGLGFAFTPQPEGIPLKTKIIKGILIALYRIALPMLESLIVLNPDDKDELLHQYGIKIKNIHILGGIGLDLRQYPYSEADIPDEKEPVKFLFIGRFLKEKGIDDFIRAAEQVKGKYPDTVFTALGAIDKSRGGGGDLERFIARDIIRFPGFVNNVSEVIKAHHIFVLPSYYREGVPRSTQEAMAVGRAVITTDVPGCRETVADKVNGFLIEPWNPRILAEKMIYFIENRAAVRLMANASYAIAKDKFDAEKVDLKFLDILKA” the entry was “not soluble”.
With “MCWYGDPGATYRYSGVSHQPSPWHEVLADLRTRIEAFSGHVFNAVLCNRYRSGRDSMGWHADDEPELGERPFIASLSLGAERLFRIRHRGTGRTLDVPLRDGDLLLMGGELQSHWRHCVPRTARPCGERINLTFRRVVPRSLEHHHHHH” the entry was “not soluble”.
The same measure for “MGSDKIHHHHHHMRLKELLPNFLIVHQEVPEDPIAFKSTDKRENENKEITIPELIDTKVPELADGATDTLYGLLVNGHLQTAYGSFRHFDNIYKVQYKRMIIKYPHGGEGTVDFAVNGRSTKRRKVEKEYVPTSQPVFNGNLKRRYSYYSPDDPKLNSDDAKPMLIILHGLTGGSRESYVRAIVHEITTKYDFEACVFNARGCCYSAITTPLLYNGGWTNDIRYCVNDLRKRFPNRKFYMMGFSLGASIMTNYLGEESDRTKIECAISVSNPFDLYNSAYFINSTPMGSRFYSPALGHNLLRMVRNHLSTLEENPDFKDVIEKHLKKIRTVRQFDNLLTGPMFGYKNAEEYYKNASSYKRIPGIRTPFIALHAQDDPIVGGDLPIDQIKSNPYTLLLETSTGGHVGWFKDRSGRRWYAEPLCRFLKIFHDEITVKGLKPDLENVQLPDPNCEPIATTFRAN”: “not soluble”.
As to “MSLASLRVLALACLPLFAVLHADAKTLLGKVKRATGMGVGEGPSVAKKPKYTATVPGFTPPSGDQRMNEFMAVDTSGEFMRHLYIEEGRTVCASATSRNRRPTSESPHSDDVVVVEGMLRGRPETRVHAMFDGFQGRHSAMWLAQNVMNYLNDLRDVNEEEITRQFERMDGDLRAANLPGGSSALIIFVRYEKKPTEARVVGRQIVPEGAKEFTSVAEALGGPLMPVVAMNFRRDPRAAKGIYTIHVASLGNSRCVLKSGRTAIHLSTPHTASSHKERHRVQAAGGVFTTVNGELLLGGVVPMTRAFGSFDFKKGGQGKLQQDLVSAVPDVTTFFAYPGDDIVAGTAGAFAHFRSHAAIAAAIALYPVSPETVLDAAEGHHHHHH”, the “soluble on expression in E. coli” value is “soluble”.
With “MIKNILILSSNNTGHGHKSITESLLEQFSHYPDVNVHVIDGFTLAGNFGLRIGKLYGSVTRNAKELWKLVWELSLKKPSLLNDFTEVAIKDNFLKLICNIKPDLILSVHPNFNGSVLNILEDYNIKVPFVTLLADIVSITPLWADPRADYIICPSKESKFKCLEFGVSESKLIETGFPVRQKFLKLEHHHHHH” the entry was “not soluble”.
In the case of “MRALRLVTSESVTEGHPDKLADRISDAILDALIAQDKKARVAAETLVTTGLVFVAGEITTEGYVDIPNLVRKTVREVGYTRAKYGFDADTCAVLTAIDEQSPDIAGGVNLSYEWRVLKSTDPLDRVGAGDQGLMFGYATDETPELMPLPITLAHRLTMRLAEVRKTGLLPYLRPDGKAQVTVVYEGDKPLYVKTVVVSAQHSPEVEQEQLREDLIREVVRQAIPPEYLKDGETEYLINPSGRFILGGPHADTGLTGRKIIVDTYGGAVPHGGGAFSGKDPTKVDRSASYYARYMAKNIVAAGLARRALVELAYAIGKARPVSLRVETFGTGVLPDEKLTEIAKKVFDPRPLAIIEELDLLRPIYTPTSAYGHFGRPGFPWEETDRVEALRREAGL”, the “soluble on expression in E. coli” value is listed as “soluble”.
The same measure for “MVCFGVGSGGTVTGVGRYLRAQKQNIGVYPVEPFESSVLSGFPRGPHKIHGIGAGLIPGNVDRSLFTEVLRVKSEDAMKMARRLADEEAILGEISSGANVVAAVELACRPENIGKLIVTTVNSFAERYFSTELYSTLLSEVSKLPISTDEQAVDIAKKYLGL”: “not soluble”; for “STSAAQQGRNQNGEYNILDSIIAETRLSPDDEAYDIAKRGVSAFIEELLKPQNDGEPVKKAMVDRMIAEIDAKLSTQMDEILHHPDFQALESAWRGLQLLVDRTNFRENIKIEILSVSKQDLLDDFEDSPEVMQSGLYKHIYTAEYGQFGGQPVGAIIANYYMSPSSPDVKLMQYVSSVACMAHAPFVAAAGPKFFGLESFTGLPDLKDLKDHFEGPQFAKWQSFRQSEDSRYVALTVPRFLLRTPYDPEENPVKSFAYKETVANSHEHYLWGNTAYAFGTKLTDSFAKYRWCPNIIGPQSGGAVEDLPLHHFESMGEIETKIPTEVLVSDRREYELAEEGFISLTMRKGSDNAAFFSASSVQKPKFFGISAEGKAAELNYKLGTQLPYMMIVNRLAHYLKVLQREQLGSWKERTDLELELNKWIRQYVADQENPSAEVRGRRPLRAAQIIVSDVEGEPGWYRVSLNVRPHFKYMGADFTLSLVG”: “not soluble”.
Consider “MPLTTNTILICAGGACISAGEKSVKDAFEEELRKYGLDEVVRVIETGCMGACTLGPIAVIYPESVFYQKLTPDAAREIVEEHILKGRIVEKYLYKASEGKPVPRVHEEVPFFKKQVRIVTRNLGVIDPTKIEEYIARDGYFALAKALQMKPEDVIKEIKDSGLRGRGGAGFPTGLKWELAARQKAEKKFVVCNADEGDPGAFMDRSVLEGDPHAVIEGMAIAAYAIGAQKGFVYVRAEYPLAIERLNIALNQAREYGFLGGNIMGTDFSFDIEIRIGAGAFVCGEETALMASIEGERGQPKVKPPYPVEKGLWGYPTVINNVETLANVPWIIRNGAKEFRKYGTENSPGTKVFALAGKVKNTGLVEVPMGITLRELIYEIGGGIAGDKKLKAIQTGGPSGGCIPAEYVDTPVDFESLQKLGAIMGSGGMIVMDEDDCMVDVARFFLEFTVEESCGKCTPCREGTKKMLEILEKITSGEGTEEDIEELEKLAHVVKDTSLCGLGQTAPNPVLSTLRYFRDEYLAHVKEKRCPSKKCKALISYVIDPEKCVGCTACARVCPVQCISGQVRQPHVIDQAECVRCGSCIEVCRFGAISKVTPALPVEEAVEAAALEHHHHHH”, for which the “soluble on expression in E. coli” value is given as “not soluble”.

The values above are taken from the DeepSol protein solubility set.
